For experiment [1], the target named is T1, recombinant human CD25 extracellular domain tagged with 6xHis (human, UniProt P01589 22-240).
T1 chain: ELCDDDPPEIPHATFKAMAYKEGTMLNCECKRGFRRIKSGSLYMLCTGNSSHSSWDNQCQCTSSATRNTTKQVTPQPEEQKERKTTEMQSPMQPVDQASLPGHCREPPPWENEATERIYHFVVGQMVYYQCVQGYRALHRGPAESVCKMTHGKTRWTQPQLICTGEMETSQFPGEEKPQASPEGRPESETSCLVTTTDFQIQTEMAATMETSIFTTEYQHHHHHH

B1: CD25 (receptor)
chain: ELCDDDPPEIPHATFKAMAYKEGTMLNCECKRGFRRIKSGSLYMLCTGNSSHSSWDNQCQCTSSATRNTTKQVTPQPEEQKERKTTEMQSPMQPVDQASLPGHCREPPPWENEATERIYHFVVGQMVYYQCVQGYRALHRGPAESVCKMTHGKTRWTQPQLICTGEMETSQFPGEEKPQASPEGRPESETSCLVTTTDFQIQTEMAATMETSIFTTEYQHHHHHH
Turning to B1, the Kd with L72I came out at 0.024 nM; in the experiment with M104D, 0.028 nM; with V69A, 0.023 nM; with N71Y, 0.018 nM; with I114W it was 0.038 nM.

B2: E68Q (protein)
chain: APTSSSTKKTQLQLEHLLLDLQMILNGINNYKNPKLTRMLTFKFYMPKKATELKHLQCLEEELKPLEQALNLAPSKNFHLRPRDLISNINVIVLELKGSETTFMCEYADETATIVEFLNRWITFSQSIISTLT
On to B2, for which the Kd in experiment [1] is 0.022 nM.
